Earlier results, collected in publication PMC3538140.

Target: TRAIL-R1 (Homo sapiens) (UniProt O00220)
Sequence of UniProt O00220 (O00220 24-468): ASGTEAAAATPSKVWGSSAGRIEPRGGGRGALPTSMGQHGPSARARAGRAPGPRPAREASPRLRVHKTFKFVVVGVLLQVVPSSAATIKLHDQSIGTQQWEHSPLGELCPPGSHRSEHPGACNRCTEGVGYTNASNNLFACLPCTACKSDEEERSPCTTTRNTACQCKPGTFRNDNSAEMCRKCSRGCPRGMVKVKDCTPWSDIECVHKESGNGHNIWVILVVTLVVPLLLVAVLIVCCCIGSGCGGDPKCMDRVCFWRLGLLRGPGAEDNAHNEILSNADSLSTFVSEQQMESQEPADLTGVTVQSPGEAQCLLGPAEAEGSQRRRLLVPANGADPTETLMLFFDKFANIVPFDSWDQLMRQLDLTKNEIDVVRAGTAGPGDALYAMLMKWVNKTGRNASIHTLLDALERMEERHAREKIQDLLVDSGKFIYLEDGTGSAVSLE

Kd: 70 nM
Substance: TRAIL (from UniProt P50591)
